Measurements as given in PMC3856062.

Target: CFP-SelM′ (human) (UniProt Q8WWX9)
Assay: FRET or BRET; acceptor photobleaching FRET in living HeLa cells cotransfected with CFP (donor) and YFP (receptor) plasmids; region of interest bleached at 515 nm for 20 s; laser confocal microscope

UniProt Q8WWX9, sequence (Q8WWX9 28-145): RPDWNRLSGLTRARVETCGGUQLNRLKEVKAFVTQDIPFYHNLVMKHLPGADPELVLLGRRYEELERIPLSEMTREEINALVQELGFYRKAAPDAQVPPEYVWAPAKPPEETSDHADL

Substance: YFP-Gal-1 (from UniProt P09382 1-135) (natural protein)
- FRET efficiency: 27.3%
- distance between donor and receptor (FRET): 6.35 nm
